# Test results published in US20230105029A1.
# “And” between values parts separate entries of the source, which are not always exact repeats. Equal values may be shown once. Read-outs that look alike come from different tables or passages of the source.
# B1: anti-IL4Rα benchmark (Dupilumab) (antibody, INN chains, looked up, V domains shown)
# VH: EVQLVESGGGLEQPGGSLRLSCAGSGFTFRDYAMTWVRQAPGKGLEWVSSISGSGGNTYYADSVKGRFTISRDNSKNTLYLQMNSLRAEDTAVYYCAKDRLSITIRPRYYGLDVWGQGTTVTVSS
# VL: DIVMTQSPLSLPVTPGEPASISCRSSQSLLYSIGYNYLDWYLQKSGQSPQLLIYLGSNRASGVPDRFSGSGSGTDFTLKISRVEAEDVGFYYCMQALQTPYTFGQGTKLEIKR
# Tests used:
# [1] = molecular target: human IL4Rα expressed on HEK293T-IL4Rα-STAT6-STAT6LUC-LB2 cells (human) (UniProt P24394); assay: cell-based or functional assay
# [2] = molecular target: human IL4Rα expressed on HEK293T-IL4Rα-STAT6-STAT6LUC-LB2 cells (human) (UniProt P24394); assay: cell-based or functional assay; remark: listed apart in the source
# [3] = molecular target: human IL4Rα expressed on HEK293T-IL4Rα-STAT6-STAT6LUC-LB2 cells (human) (UniProt P24394); assay: cell-based or functional assay; remark: listed apart in the source
# [4] = molecular target: recombinant human IL4Rα-his protein (in house made) (human) (UniProt P24394); assay: capture ELISA, biotin-IL4Rα-his
# [5] = molecular target: human IL4Rα expressed on 293F-IL4Rα cells (human) (UniProt P24394); assay: flow cytometry, 293F-IL4Rα cells
# [6] = molecular target: human IL4Rα expressed on 293F-IL4Rα cells (human) (UniProt P24394); assay: flow cytometry, 293F-IL4Rα cells; remark: listed apart in the source
# [7] = molecular target: human IL4Rα expressed on 293F-IL4Rα cells (human) (UniProt P24394); assay: flow cytometry, 293F-IL4Rα cells; remark: listed apart in the source
# [8] = molecular target: marmoset monkey IL4Rα-his protein (marmoset monkey); assay: indirect ELISA, coated cal-IL4Rα-his
# [9] = molecular target: cynomolgus monkey IL4Rα-his protein (cynomolgus monkey); assay: indirect ELISA, coated cyno IL4Rα-his
# [10] = molecular target: cynomolgus monkey IL4Rα-his protein (cynomolgus monkey); assay: indirect ELISA, coated cyno IL4Rα-his; remark: listed apart in the source
# [11] = molecular target: human IL4Rα expressed on 293F-IL4Rα cells (human) (UniProt P24394); assay: flow cytometry on 293F-IL4Rα cells
# [12] = molecular target: human IL4Rα expressed on 293F-IL4Rα cells (human) (UniProt P24394); assay: flow cytometry on 293F-IL4Rα cells; remark: listed apart in the source
# [13] = molecular target: human IL4Rα expressed on 293F-IL4Rα cells (human) (UniProt P24394); assay: flow cytometry on 293F-IL4Rα cells; remark: listed apart in the source
# [14] = molecular target: human IL4Rα expressed on 293F-IL4Rα cells (human) (UniProt P24394); assay: flow cytometry on 293F-IL4Rα cells; remark: listed apart in the source
# [15] = molecular target: human IL4Rα expressed on 293F-IL4Rα cells (human) (UniProt P24394); assay: flow cytometry on 293F-IL4Rα cells; remark: listed apart in the source
# [16] = molecular target: human IL4Rα expressed on 293F-IL4Rα cells (human) (UniProt P24394); assay: flow cytometry on 293F-IL4Rα cells; remark: listed apart in the source
# [17] = molecular target: human IL4Rα expressed on 293F-IL4Rα cells (human) (UniProt P24394); assay: flow cytometry on 293F-IL4Rα cells; remark: listed apart in the source
# [18] = molecular target: marmoset monkey IL4Rα-his protein (marmoset monkey); assay: indirect ELISA on coated cal-IL4Rα-his
# [19] = molecular target: marmoset monkey IL4Rα-his protein (marmoset monkey); assay: indirect ELISA on coated cal-IL4Rα-his; remark: listed apart in the source
# [20] = molecular target: recombinant human IL4Rα-his protein (in house made) (human) (UniProt P24394); assay: SPR (Biacore), antibody captured, IL4Rα-his flowed
# [21] = molecular target: recombinant human IL4Rα-his protein (in house made) (human) (UniProt P24394); assay: SPR (Biacore), antibody captured, IL4Rα-his flowed; remark: listed apart in the source
# [22] = molecular target: recombinant human IL4Rα-his protein (in house made) (human) (UniProt P24394); assay: SPR (Biacore), antibody captured, IL4Rα-his flowed; remark: listed apart in the source
# [23] = molecular target: recombinant human IL4Rα-his protein (in house made) (human) (UniProt P24394); assay: SPR (Biacore), antibody captured, IL4Rα-his flowed; remark: listed apart in the source
# [24] = molecular target: recombinant human IL4Rα-his protein (in house made) (human) (UniProt P24394); assay: SPR (Biacore), antibody captured, IL4Rα-his flowed; remark: listed apart in the source
# [25] = molecular target: cynomolgus monkey IL4Rα-his protein (cynomolgus monkey); assay: indirect ELISA on coated cynomolgus IL4Rα-his
# [26] = molecular target: cynomolgus monkey IL4Rα-his protein (cynomolgus monkey); assay: indirect ELISA on coated cynomolgus IL4Rα-his; remark: listed apart in the source
# [27] = molecular target: cynomolgus monkey IL4Rα-his protein (cynomolgus monkey); assay: indirect ELISA on coated cynomolgus IL4Rα-his; remark: listed apart in the source
# [28] = molecular target: human IL4Rα expressed on 293F-IL4Rα cells (human) (UniProt P24394); assay: flow cytometry, blocks biotin-IL4 binding to 293F-IL4Rα cells
# [29] = molecular target: human IL4Rα expressed on 293F-IL4Rα cells (human) (UniProt P24394); assay: as above; remark: listed apart in the source
# [30] = molecular target: recombinant human IL4Rα-his protein (in house made) (human) (UniProt P24394); assay: competitive ELISA, blocks biotin-IL4 binding to coated IL4Rα-his
# [31] = molecular target: recombinant human IL4Rα-his protein (in house made) (human) (UniProt P24394); assay: as above; remark: listed apart in the source
# [32] = molecular target: recombinant human IL4Rα-his protein (in house made) (human) (UniProt P24394); assay: as above; remark: listed apart in the source
# [33] = molecular target: human IL4Rα expressed on 293F-IL4Rα cells (human) (UniProt P24394); assay: flow cytometry on 293F-IL4Rα cells, blocked ligand biotin human IL4
# [34] = molecular target: human IL4Rα expressed on 293F-IL4Rα cells (human) (UniProt P24394); assay: as above; remark: listed apart in the source
# [35] = molecular target: human IL4Rα expressed on 293F-IL4Rα cells (human) (UniProt P24394); assay: as above; remark: listed apart in the source
# [36] = molecular target: human IL4Rα expressed on 293F-IL4Rα cells (human) (UniProt P24394); assay: as above; remark: listed apart in the source
# [37] = molecular target: human IL4Rα expressed on 293F-IL4Rα cells (human) (UniProt P24394); assay: as above; remark: listed apart in the source
# [38] = molecular target: recombinant human IL4Rα-his protein (in house made) (human) (UniProt P24394); assay: competitive ELISA: coated human IL4Rα-his, blocked ligand biotin human IL4
# [39] = molecular target: recombinant human IL4Rα-his protein (in house made) (human) (UniProt P24394); assay: as above; remark: listed apart in the source
# [40] = molecular target: recombinant human IL4Rα-his protein (in house made) (human) (UniProt P24394); assay: as above; remark: listed apart in the source
# [41] = molecular target: recombinant human IL4Rα-his protein (in house made) (human) (UniProt P24394); assay: as above; remark: listed apart in the source
# [42] = molecular target: recombinant human IL4Rα-his protein (in house made) (human) (UniProt P24394); assay: as above; remark: listed apart in the source
# [43] = molecular target: recombinant human IL4Rα-his protein (in house made) (human) (UniProt P24394); assay: competitive ELISA, blocks biotin-IL4Rα-his binding to coated Benchmark (self-competition)
# [44] = molecular target: recombinant human IL4Rα-his protein (in house made) (human) (UniProt P24394); assay: as above; remark: listed apart in the source
# [45] = molecular target: recombinant human IL4Rα-his protein (in house made) (human) (UniProt P24394); assay: capture ELISA: antibody captured on anti-IgG Fc plate, biotin human IL4Rα-his detected
# [46] = molecular target: recombinant human IL4Rα-his protein (in house made) (human) (UniProt P24394); assay: as above; remark: listed apart in the source
# [47] = molecular target: recombinant human IL4Rα-his protein (in house made) (human) (UniProt P24394); assay: as above; remark: listed apart in the source
# [48] = molecular target: recombinant human IL4Rα-his protein (in house made) (human) (UniProt P24394); assay: as above; remark: listed apart in the source
# [49] = molecular target: recombinant human IL4Rα-his protein (in house made) (human) (UniProt P24394); assay: as above; remark: listed apart in the source
# [50] = molecular target: recombinant human IL4Rα-his protein (in house made) (human) (UniProt P24394); assay: as above; remark: listed apart in the source
# [51] = molecular target: recombinant human IL4Rα-his protein (in house made) (human) (UniProt P24394); assay: competitive ELISA: antibody mixed with biotin human IL4Rα-his, competitor plate-coated Benchmark
# [52] = molecular target: recombinant human IL4Rα-his protein (in house made) (human) (UniProt P24394); assay: as above; remark: listed apart in the source
# [53] = molecular target: recombinant human IL4Rα-his protein (in house made) (human) (UniProt P24394); assay: as above; remark: listed apart in the source
# [54] = molecular target: recombinant human IL4Rα-his protein (in house made) (human) (UniProt P24394); assay: as above; remark: listed apart in the source
# marmoset monkey IL4Rα-his protein (marmoset monkey), sequence (chain, as listed by the source limits assumed): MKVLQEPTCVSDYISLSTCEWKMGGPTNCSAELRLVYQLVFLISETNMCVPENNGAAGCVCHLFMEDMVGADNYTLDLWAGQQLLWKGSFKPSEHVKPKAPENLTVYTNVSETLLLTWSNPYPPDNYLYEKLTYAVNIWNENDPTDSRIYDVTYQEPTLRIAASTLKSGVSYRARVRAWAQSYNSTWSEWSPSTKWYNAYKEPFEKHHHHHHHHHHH
# cynomolgus monkey IL4Rα-his protein (cynomolgus monkey), sequence (chain, as listed by the source): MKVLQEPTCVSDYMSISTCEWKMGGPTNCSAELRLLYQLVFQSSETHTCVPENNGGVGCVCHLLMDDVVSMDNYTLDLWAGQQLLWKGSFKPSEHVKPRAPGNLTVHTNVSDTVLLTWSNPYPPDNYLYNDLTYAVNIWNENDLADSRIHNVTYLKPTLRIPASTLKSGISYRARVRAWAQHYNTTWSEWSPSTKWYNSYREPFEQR
binder,measurement,setting,value
B1,"Inhibition on IL4 induced STAT6 phosphorylation (IC50, nM)",[1],0.28 nM
same,"Inhibition on IL13 induced STAT6 phosphorylation (IC50, nM)",[1],0.53 nM
same,"Inhibition on IL4 induced STAT6 phosphorylation (IC50, nM)",[2],0.37 nM
same,"Inhibition on IL13 induced STAT6 phosphorylation (IC50, nM)",[2],0.48 nM
same,"Inhibition on IL4 induced STAT6 phosphorylation (IC50, nM)",[3],0.7 nM
same,"Inhibition on IL13 induced STAT6 phosphorylation (IC50, nM)",[3],0.84 nM
same,EC50,[4],0.05 nM
same,EC50,[5],0.08 nM
same,EC50,[6],0.46 nM
same,EC50,[7],0.4 nM and 0.53 nM
same,EC50,[8],1.72 nM and 1.84 nM
same,EC50,[9],0.95 nM
same,EC50,[10],0.67 nM and 3.34 nM
same,EC50,[11],0.134 nM
same,EC50,[12],0.128 nM
same,EC50,[13],0.254 nM
same,EC50,[14],0.0816 nM
same,EC50,[15],0.462 nM
same,EC50,[16],0.526 nM
same,EC50,[17],0.397 nM
same,EC50,[18],1.84 nM
same,EC50,[19],1.72 nM
same,Kd,[20],0.17 nM
same,koff,[20],3.77e-05 s⁻¹
same,kon,[20],222000 M⁻¹ s⁻¹
same,Kd,[21],0.466 nM
same,Kd,[22],0.444 nM
same,koff,[22],0.00033 s⁻¹
same,kon,[22],742000 M⁻¹ s⁻¹
same,Dissociation %,[23],-2.64%
same,End (RU),[23],70 RU
same,Kd,[23],0.188 nM
same,Start (RU),[23],71.9 RU
same,koff,[23],6.25e-05 s⁻¹
same,kon,[23],333000 M⁻¹ s⁻¹
same,Kd,[24],0.746 nM
same,EC50,[25],0.954 nM
same,EC50,[26],3.33 nM
same,EC50,[27],0.674 nM
same,IC50,[28],0.22 nM
same,IC50,[29],0.42 nM and 0.51 nM
same,IC50,[30],0.68 nM
same,IC50,[31],2.06 nM
same,IC50,[32],1.74 nM and 1.56 nM
same,IC50,[33],0.302 nM
same,IC50,[34],0.313 nM
same,IC50,[35],0.22 nM
same,IC50,[36],0.505 nM
same,IC50,[37],0.421 nM
same,IC50,[38],0.682 nM
same,IC50,[39],0.269 nM
same,IC50,[40],2.06 nM
same,IC50,[41],1.56 nM
same,IC50,[42],1.74 nM
same,IC50,[43],0.02 nM
same,IC50,[44],0.19 nM and 0.13 nM
same,EC50,[45],0.0485 nM
same,EC50,[46],0.0284 nM
same,EC50,[47],0.0228 nM
same,EC50,[48],0.0479 nM
same,EC50,[49],0.0505 nM
same,EC50,[50],0.0517 nM
same,IC50,[51],0.0235 nM
same,IC50,[52],0.0158 nM
same,IC50,[53],0.132 nM
same,IC50,[54],0.189 nM
